Patent US20230399384A1 (University of Texas, published 2023)
Read-outs that look alike come from different tables or passages of the source.

T1: S protein of MERS-CoV (MERS-CoV, UniProt K9N5Q8 18-1296)
T1 sequence: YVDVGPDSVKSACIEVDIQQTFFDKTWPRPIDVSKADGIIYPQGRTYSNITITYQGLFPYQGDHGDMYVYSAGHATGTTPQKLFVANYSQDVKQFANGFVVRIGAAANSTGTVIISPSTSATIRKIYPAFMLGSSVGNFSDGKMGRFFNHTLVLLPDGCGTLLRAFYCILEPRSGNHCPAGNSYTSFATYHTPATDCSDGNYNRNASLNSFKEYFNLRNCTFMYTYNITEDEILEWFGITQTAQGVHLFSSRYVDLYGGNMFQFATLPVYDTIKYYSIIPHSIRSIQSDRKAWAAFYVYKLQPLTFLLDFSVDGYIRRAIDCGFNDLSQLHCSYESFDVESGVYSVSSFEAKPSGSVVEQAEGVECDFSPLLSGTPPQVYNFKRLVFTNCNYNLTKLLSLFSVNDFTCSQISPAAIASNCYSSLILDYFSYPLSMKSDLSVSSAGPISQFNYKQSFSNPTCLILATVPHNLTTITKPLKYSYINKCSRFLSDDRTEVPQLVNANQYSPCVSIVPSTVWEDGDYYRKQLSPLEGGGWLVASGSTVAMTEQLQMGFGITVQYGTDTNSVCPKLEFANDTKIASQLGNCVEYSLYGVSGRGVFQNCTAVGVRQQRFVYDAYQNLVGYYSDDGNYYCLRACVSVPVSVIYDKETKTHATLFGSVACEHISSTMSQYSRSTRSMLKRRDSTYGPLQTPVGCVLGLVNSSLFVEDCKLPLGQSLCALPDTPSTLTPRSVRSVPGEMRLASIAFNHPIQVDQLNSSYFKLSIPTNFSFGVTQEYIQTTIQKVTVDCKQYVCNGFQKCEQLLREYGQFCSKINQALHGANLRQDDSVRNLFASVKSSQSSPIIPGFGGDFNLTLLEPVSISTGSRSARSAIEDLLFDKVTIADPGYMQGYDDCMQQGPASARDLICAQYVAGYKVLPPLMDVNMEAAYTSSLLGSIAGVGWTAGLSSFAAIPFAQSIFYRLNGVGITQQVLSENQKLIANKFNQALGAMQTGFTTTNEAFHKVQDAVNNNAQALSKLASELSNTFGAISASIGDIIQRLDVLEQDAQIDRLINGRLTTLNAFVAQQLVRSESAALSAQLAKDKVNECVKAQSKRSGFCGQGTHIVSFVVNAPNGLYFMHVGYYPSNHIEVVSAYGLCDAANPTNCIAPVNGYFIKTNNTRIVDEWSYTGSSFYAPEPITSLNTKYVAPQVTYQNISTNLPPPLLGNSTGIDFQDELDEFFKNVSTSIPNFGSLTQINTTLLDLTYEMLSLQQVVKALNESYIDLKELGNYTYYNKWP


What was measured:
[1] = molecular target: T2, SARS-CoV-2 RBD protein (Sino Biological, Cat: 40592-V08B) (SARS-CoV-2, UniProt P0DTC2 319-541)
[2] = molecular target: T3, sCoV2-RBD (Fc-tagged RBD of SARS-CoV-2 S protein) (SARS-CoV-2; human, UniProt P0DTC2 319-541)
[3] = molecular target: T2, SARS-CoV-2 RBD protein (Sino …); remark: listed apart in the source
[4] = molecular target: SARS-CoV-2 S protein on live SARS-CoV-2-mNG reporter virus (SARS-CoV-2, UniProt P0DTC2 14-1273); assay: cell-based or functional assay
[5] = molecular target: T4, sCoV-RBD (Fc-tagged RBD of SARS-CoV S protein) (SARS-CoV; human, UniProt P59594 306-527); assay: phage ELISA, scFv on phage
[6] = molecular target: T3, sCoV2-RBD (Fc-tagged RBD of SARS-CoV-2 …); assay: ELISA titration on coated sCoV2-RBD
[7] = molecular target: T5, S protein of SARS-CoV (SARS-CoV, UniProt P59594 14-1195); assay: ELISA, purified IgG1 on coated S protein
[8] = molecular target: T3, sCoV2-RBD (Fc-tagged RBD of SARS-CoV-2 …); assay: BLI (Octet) blocking of ACE2 binding to captured sCoV2-RBD
[9] = molecular target: T2, SARS-CoV-2 RBD protein (Sino …); assay: BLI (Octet), mAb on Protein A sensor
[10] = molecular target: T4, sCoV-RBD (Fc-tagged RBD of SARS-CoV S …); assay: ELISA titration on coated sCoV-RBD
[11] = molecular target: T3, sCoV2-RBD (Fc-tagged RBD of SARS-CoV-2 …); assay: ELISA titration on coated sCoV2-RBD; remark: listed apart in the source
[12] = molecular target: T4, sCoV-RBD (Fc-tagged RBD of SARS-CoV S …); assay: BLI (Octet) blocking of ACE2 binding to sCoV-RBD
[13] = molecular target: T5, S protein of SARS-CoV; assay: BLI (Octet), CoV2-20 against spike of SARS-CoV
[14] = molecular target: T3, sCoV2-RBD (Fc-tagged RBD of SARS-CoV-2 …); remark: listed apart in the source
[15] = molecular target: T4, sCoV-RBD (Fc-tagged RBD of SARS-CoV S …)
[16] = molecular target: trimeric prefusion S protein of SARS-CoV-2 (SARS-CoV-2, UniProt P0DTC2 14-1208)
[17] = molecular target: T5, S protein of SARS-CoV
[18] = molecular target: T1, S protein of MERS-CoV; assay: BLI kinetic binding (FIG. 28D)
[19] = molecular target: T3, sCoV2-RBD (Fc-tagged RBD of SARS-CoV-2 …); assay: ELISA titration on coated sCoV2-RBD; remark: listed apart in the source

Binder	Kd [1] [nM]	EC50 [2] [nM]	Kd [3] [nM]	koff [3] [s⁻¹]	kon [3] [M⁻¹ s⁻¹]	NC50 (neutralisation of reporter SARS-CoV-2, Vero E6 cells) [4] [µg/mL]	binding result [5]	EC50 [6] [nM]	binding result [7]	IC50 [8] [µg/mL]	Kd [9] [nM]	koff [9] [s⁻¹]	kon [9] [M⁻¹ s⁻¹]	IC50 [12] [µg/mL]	further results
CoV2-18 (antibody, V domains shown) VH: QVQLVQSGAEVKKPGSSVKVSCKASGGTFSNYGISWVRQAPGQGLEWMGGIIPIFGTANYAQKFQGRVTITADKSTRTAYMELSSLRFEDTAVYYCARDRDDALTGLGLGGGFDIWGQGTMVTVSS VL: QAVVTQPPSASGTPGQRVTISCSGSTSNIGTNTANWYQHLPGTAPKLLIYGNDRRPSGVPDRFSGSKSVTSASLAISGLQSEDEADYYCAAWDERLNGYVFGTGTKLTVL	11.4	2.41	11.4	0.000467	41200	1.93	no binding	2.41	no binding (tested: one concentration, not printed)	6.03					
CoV2-20 (antibody, V domains shown) VH: QVQLVESGGDLVQPGRSLRLSCAASGFIFDDYAMHWVRQVPGKGPEWVSGVNRDSTYVGQADSVKGRFTISRDNAKKALFLQMDSLRVEDTALYYCVRGMTRVATDAFDFWGQGTMVTVSS VL: AIQMTQSPSSLSASVGDRVTITCRASQSINGYLNWYQQKPGKAPKLLIYSASRLQSGVPSRFSGSGSGADYTLTISNLQVEDFATYYCQQSYSTPPVTFGQGTRLEIK								22		14.7	29.5	0.000805	27300	44.6	EC50 [10]: 9.96 nM; EC50 [11]: 5.99 nM; Kd [13]: 24.4 nM; koff [13]: 0.000676 s⁻¹; kon [13]: 27700 M⁻¹ s⁻¹
CoV2-12 (antibody, V domains shown) VH: QVQLVESGGGVVQPGRSLRLSCVASGFTFSSYAMQWVRQAPGKGLEYVAVVSDDGNMKFYADSVKGRFTISRDNSRNTVSLQMNSLGVEDTAVYYCARENYFWSGSIGGLDYWGQGTLVSVSS VL: not shown						18.2		2.11		2.13				1.71	EC50 [14]: 0.89 nM; EC50 [15]: 3.51 nM; Kd [16]: 10.7 nM; Kd [17]: 9.95 nM; binding result [18]: no binding
CoV2-17 (antibody, V domains shown) VH: QVELVESGGGLVKPGGSLRLSCAASGFTFSSYSMNWVRQAPGKGLEWVSSISSSSSYIYYADSVKGRFTISRDNAKNSLYLQMNSLRAEDTAVYYCARGNVDIVATGEVDAFDIWGQGTMVSVSS VL: QAVVTQPPSASGTLGQRVTISCSGSSSTIGSNYVYWYQQLPGTAPKLLIYRNNQRPSGVPDRFSGSKSGTSASLAISGLRSEDEADYYCAAWDDSLSGYVFGTGTQLTVL	1.73	2.31	1.73	5.78e-05	33300	2.49	no binding	2.24	no binding (tested: one concentration, not printed)	4.28	53.4	0.00101	18900		
CoV2-11 (antibody, V domains shown) VH: QVELVESGGGLVQPGRSLRLSCEASGFSFDNYAMHWVRQTPGKGLEWVSGITGNSGTIGYADSVKGRFTISRDNAKNSLYLQMNRLRAEDTALYYCAKDTDYDSSGSYFDYWGQGTLVTVSS VL: QPVLTQPPSVAVAPGQTARITCGGKNIGRESVHWYQQKPDQAPVLVIYSDGDRPSGTSERFSGSRSGNAATLTISRVEAGDEADYFCQVWDPDTDHYVFGTGTELTVL								0.6		2.97	4.97	0.000306	61600		EC50 [19]: 0.59 nM
